B1: Cell division control protein 13 (Saccharomyces cerevisiae), P32797 (parent)
chain: MDTLEEPECPPHKNRIFVSSSKDFEGYPSKAIVPVQFVALLTSIHLTETKCLLGFSNFERRGDQSQEDQYLIKLKFKDRGSERLARITISLLCQYFDIELPDLDSDSGASPTVILRDIHLERLCFSSCKALYVSKHGNYTLFLEDIKPLDLVSVISTISTKSTNSSKHSSSELISECDLNNSLVDIFNNLIEMNRDEKNRFKFVKLIHYDIELKKFVQDQQKVLSQKSKAAAINPFFVPNRLGIPYIESQNEFNSQLMTLNVDEPTTDISNMGEEMHDSADPIEDSDSSTTSSTGKYFSSKSYIQSQTPERKTSVPNNWHDDDSGSKRKRKLSFHSPNASSIRKAISYEQLSLASVGSVERLEGKIVGMNPPQFASINEFKYCTLKLYFTQLLPNVPDKVLVPGVNCIEIVIPTRERICELFGVLNCQSDKISDILLLEKPDRISVEVERILWDNDKTASPGMAVWSLKNISTDTQAQAQVQVPAQSSASIDPSRTRMSKMARKDPTIEFCQLGLDTFETKYITMFGMLVSCSFDKPAFISFVFSDFTKNDIVQNYLYDRYLIDYENKLELNEGFKAIMYKNQFETFDSKLRKIFNNGLRDLQNGRDENLSQYGIVCKMNIKVKMYNGKLNAIVRECEPVPHSQISSIASPSQCEHLRLFYQRAFKRIGESAISRYFEEYRRFFPIHRNGSHLAKLRFDEVKHEPKKSPTTPALAEHIPDLNADVSSFDVKFTDISSLLDSSARLPRPQQTHKSNTLYSCEGRIIAIEYHASDLCFHITNELPLLQTRGLAPERVLQLHIITSKNFAYFFNRSSAYLQRQPLEEKYTQLAQFLGHSFKFNITSSLTLFPDTTVALQIWCPIECTFRELQQQLAHPKVAAAPDSGSLDCAINATVNPLRLLAAQNGVTVKKEEDNDDDAGAVPTS
partner: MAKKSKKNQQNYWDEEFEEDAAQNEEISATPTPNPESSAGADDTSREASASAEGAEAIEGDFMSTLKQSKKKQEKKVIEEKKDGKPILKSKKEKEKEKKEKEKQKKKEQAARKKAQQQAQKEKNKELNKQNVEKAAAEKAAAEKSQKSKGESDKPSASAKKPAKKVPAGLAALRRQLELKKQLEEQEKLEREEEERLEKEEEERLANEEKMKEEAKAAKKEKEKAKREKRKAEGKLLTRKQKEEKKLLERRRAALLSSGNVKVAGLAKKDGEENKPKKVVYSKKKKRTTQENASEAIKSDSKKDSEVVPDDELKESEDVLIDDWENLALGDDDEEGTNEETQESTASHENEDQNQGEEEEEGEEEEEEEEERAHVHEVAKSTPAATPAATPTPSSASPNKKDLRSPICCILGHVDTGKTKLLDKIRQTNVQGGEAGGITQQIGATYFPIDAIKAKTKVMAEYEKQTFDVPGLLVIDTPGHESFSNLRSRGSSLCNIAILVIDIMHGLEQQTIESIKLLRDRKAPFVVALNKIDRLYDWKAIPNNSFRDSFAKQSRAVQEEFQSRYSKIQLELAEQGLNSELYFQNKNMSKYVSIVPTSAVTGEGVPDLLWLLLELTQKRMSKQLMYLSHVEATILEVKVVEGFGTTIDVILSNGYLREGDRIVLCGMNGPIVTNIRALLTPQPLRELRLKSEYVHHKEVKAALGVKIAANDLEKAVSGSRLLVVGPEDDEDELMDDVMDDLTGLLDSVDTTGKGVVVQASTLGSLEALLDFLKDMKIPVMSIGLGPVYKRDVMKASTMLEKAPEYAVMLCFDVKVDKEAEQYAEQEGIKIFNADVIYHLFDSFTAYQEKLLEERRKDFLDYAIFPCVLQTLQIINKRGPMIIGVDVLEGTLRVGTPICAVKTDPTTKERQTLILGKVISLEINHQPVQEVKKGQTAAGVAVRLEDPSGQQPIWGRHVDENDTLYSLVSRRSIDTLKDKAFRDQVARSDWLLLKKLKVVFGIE
B2: Cell division control protein 13 (Saccharomyces cerevisiae), P32797 (parent)
chain: B1 chain
partner: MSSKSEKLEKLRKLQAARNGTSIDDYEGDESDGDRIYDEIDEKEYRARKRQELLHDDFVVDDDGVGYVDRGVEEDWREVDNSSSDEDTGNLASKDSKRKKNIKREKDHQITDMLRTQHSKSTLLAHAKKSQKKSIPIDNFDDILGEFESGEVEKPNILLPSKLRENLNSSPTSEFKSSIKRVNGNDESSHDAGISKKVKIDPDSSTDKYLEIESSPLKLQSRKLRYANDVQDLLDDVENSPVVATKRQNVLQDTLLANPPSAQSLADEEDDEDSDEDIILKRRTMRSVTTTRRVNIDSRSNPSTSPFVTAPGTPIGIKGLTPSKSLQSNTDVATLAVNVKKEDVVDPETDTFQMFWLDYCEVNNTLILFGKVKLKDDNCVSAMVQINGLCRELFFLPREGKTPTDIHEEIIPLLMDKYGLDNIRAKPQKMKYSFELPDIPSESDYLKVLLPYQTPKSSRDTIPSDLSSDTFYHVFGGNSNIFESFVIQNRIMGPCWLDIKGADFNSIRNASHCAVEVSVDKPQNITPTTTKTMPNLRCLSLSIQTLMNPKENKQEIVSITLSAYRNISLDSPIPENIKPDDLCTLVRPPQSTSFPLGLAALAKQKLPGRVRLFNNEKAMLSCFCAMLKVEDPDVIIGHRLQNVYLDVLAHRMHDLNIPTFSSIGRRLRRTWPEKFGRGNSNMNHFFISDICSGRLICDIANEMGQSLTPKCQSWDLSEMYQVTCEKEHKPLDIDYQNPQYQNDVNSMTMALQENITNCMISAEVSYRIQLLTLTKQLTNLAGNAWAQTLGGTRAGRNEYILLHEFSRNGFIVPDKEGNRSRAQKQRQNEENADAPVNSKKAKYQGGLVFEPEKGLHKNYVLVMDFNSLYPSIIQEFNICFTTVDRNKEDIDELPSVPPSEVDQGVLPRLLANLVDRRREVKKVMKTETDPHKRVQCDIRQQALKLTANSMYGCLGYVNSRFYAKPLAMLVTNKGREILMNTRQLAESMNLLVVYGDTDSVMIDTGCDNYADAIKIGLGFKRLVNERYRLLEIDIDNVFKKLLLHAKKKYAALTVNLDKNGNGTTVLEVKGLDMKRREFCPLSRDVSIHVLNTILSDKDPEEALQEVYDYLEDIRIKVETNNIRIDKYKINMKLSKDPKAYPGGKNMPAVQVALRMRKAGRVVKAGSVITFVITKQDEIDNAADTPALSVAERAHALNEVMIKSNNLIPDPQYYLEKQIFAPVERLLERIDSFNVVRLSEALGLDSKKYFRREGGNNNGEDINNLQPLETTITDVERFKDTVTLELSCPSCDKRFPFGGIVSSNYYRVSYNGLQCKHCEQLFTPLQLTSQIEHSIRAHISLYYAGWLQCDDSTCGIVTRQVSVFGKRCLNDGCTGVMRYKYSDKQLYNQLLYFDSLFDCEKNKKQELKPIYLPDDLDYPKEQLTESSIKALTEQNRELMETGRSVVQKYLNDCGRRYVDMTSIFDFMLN
B3: DNA polymerase alpha catalytic subunit A (Saccharomyces cerevisiae), P13382 (parent)
chain: B2 partner
partner: B1 chain

Variants of: B1
Conditions: with if2p_yeast FUN12, P39730

Variant | effect of a mutation on the interaction
K129R | decreasing interaction
G243R | decreasing interaction
I72T | decreasing interaction

Variants of: B2
Conditions: with dpola_yeast POL1, P13382

Variant | effect of a mutation on the interaction
K129R | decreasing interaction
C124R | decreasing interaction
L392P | decreasing interaction
G243R | decreasing interaction
K50Q | decreasing interaction
Y382H | decreasing interaction
I523V | decreasing interaction
D97F | decreasing interaction
I72T | decreasing interaction
S228P | decreasing interaction
L149S | decreasing interaction

Variants of: B3
Conditions: with cdc13_yeast CDC13, P32797

Variant | effect of a mutation on the interaction
E238K | decreasing interaction
P241T | decreasing interaction
D236N | decreasing interaction

Reference: IntAct's records for PubMed 10898792
